According to the domain aggregation screens of Martell et al. (2025):

Test: soluble fraction after stress (log2 fold change); higher = more stays soluble; pooled small domains, quantitative proteomics
Settings: stress: 75 degC
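Also: 20 min heating vs room temperature control held 20 min.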

HMKNNYQYIVDQIKQLILDGELIVGDRLPSERDLSEMYQVSRASVREALKALETIGLLESRHGGGNYIVNH
soluble fraction (log2): -1.28

HMKNQIGFKIKNARRKASISQADLSAKLGISSSYLNLIESGKRNVNVDLLLKVSDVLNIELKDLSK
soluble fraction (log2): -2.06

HMKNTYTVVSGDTLWGIASRKLGGGSNWTKIYDANAATIESVANRRRGGRGSDHGHWIYPGTVLTI
soluble fraction (log2): -0.298

HMKNYYRILGLNIDAEYEEIKAAYRILAQRHHPDKGGAAAEFRLIQEAYDILSNPLTKRNYDADLLATLN
soluble fraction (log2): -2.65

HMKPDMAVIVGSRTLTFATTTDRQILVLRTDGTMVNRLSMKAGETRTITLPAGVYIVNGKKIIV
soluble fraction (log2): -2.35

HMKPFSLESYKAFVVKRLGLFPETSSAQMHDWLKEEYPDFPLITPRTVYNFVMKIRQDYGIAKV
soluble fraction (log2): -3.43

HMKPFVVVPIDQVRVGMFIQLDLGWMQHPFPVGSFRVASEAQIDTLRSLDLESVRYLPAKSDPAFQQP
soluble fraction (log2): -2.82

HMKPGNFILDLLRTYGQKGTSAQNLMSSSRMFNFSENLIRVTLSRLAARGLIENFERGHYRLAE
soluble fraction (log2): -0.488

HMKPGTIVTGVVVDIKSDVVVVNAGLKSEGIVPIEQFRNDRGELEVAIGDEVKVALDSLENGFGETVLSRE
soluble fraction (log2): -0.435

HMKPQKRYLFEEVLTFLKHNSEKSFNYKQLGAAMEISNESDRFTLLETLEELKHQGFVVEKEIGKYQAKE
soluble fraction (log2): -1.25

HMKPRVTVVTLGVDDLERAVRFYAEGLGFPTEGIVGREFEFGAVAFFDMQPGLRLALWPRRSLAHDSGLP
soluble fraction (log2): -0.373

HMKPSISKIYALWGVLQRSGKIKSQDKAALDAFVRKYTGVDHVKWLDESQARKIIEILKQMIA
soluble fraction (log2): -1.55

HMKPSKTDEAEYWLMERLEEGPQPAGDLIRIGEEFGYTPKILRDAGERFNMERYKDGLDHWMWKLPN
soluble fraction (log2): -0.154

HMKPVTNHTVKFYVDDVLWKTVTVKHGGNVRLADLPMSDGKTFVGWSESVVNVTKDLTVFALFS
soluble fraction (log2): -1.96

HMKPVYNKVEIPRGGEYALVLSDGTKVHLNSMSSLRFPVAFTTGKREVELQGEAYFEVSKTGQPFIVNV
soluble fraction (log2): 0.219

HMKQGKGIIVVDGKLMPEDFNVATLSLDEVESITVLKGEKAVALYGEKAKEREVLLITTQKG
soluble fraction (log2): 0.427

HMKQKAEVIFVSKTIMEALSKGVRLTPENLKSETELPIDDFYARLKELIDNGSVVESRENGESYLEAGN
soluble fraction (log2): -0.0162

HMKQLNKRQDDILSLAEKEGYVSVENLAKTFTVSQQTIRRDINYLSDHEFLVRTHGGAFYSSG
soluble fraction (log2): -0.252

HMKQNNYATKKELNFFVSRLISLLSYRDFFNPIEKKESMINNIEAIFTRSSLTSQELRTLHGIISNLVE
soluble fraction (log2): -3.57

HMKQPNSYGSVHKLPGKRRKPWRVRKTSGWLLDEQSGTVKQQYITIGYYATKQEALIALADYNENP
soluble fraction (log2): -1.55

HMKQQFTREQIIELMYKAYKKHKKKLNRVEIKKEKALPSYVTIGRYLNETSIKKIWEIVLSEKE
soluble fraction (log2): -1.22

HMKQVEVESVIGKSEEAANSILTKAGLKVNIGYKEDSSKPTDTVLSQDPAPGEKVDEGTTVTIVVNNYKKP
soluble fraction (log2): 0.139

HMKRANGTGSVFKLNGKRRNPWVARVTQGFDDKGRQKYVNLGYYKTKREAENELLSYNSNPYDAN
soluble fraction (log2): -0.238

HMKREWKDDDPTVPAGWKVAWTTTSDNRAKIAFMSPDKKIFHSRKSALQHMLAAGTYAQSDIEKMTKGL
soluble fraction (log2): -0.315

HMKRFSPPSIEEVDSYIREKGYTVDAERFVNFYESKGWYVGKNKMKNWRAAVATWQKEDNKRN
soluble fraction (log2): -0.226

HMKRGDAYASEMIARLKEAHLIVMEGTLYPLLTRLKNDGLLSYRWEESTQGPPRKYYSITPVG
soluble fraction (log2): 0.151

HMKRITGHLTEKNKKWYAVINLYDTDGKRKEKWQGLNLDANKGNKREAEHRLRQILDQYNTD
soluble fraction (log2): -0.258

HMKRITKKQLSQQLEQFFSSQPGKKLTLKDIFRALHLDTHPLKMLAMDIMEEMAWDDFITKKGENAYQLNT
soluble fraction (log2): -0.916

HMKRKAIDQSWQPDKEAIEILSKAGVNEEFIKEEIPEFILYWSEKGEESDTWNSKFIAQVRRQWAKTQH
soluble fraction (log2): -0.121

HMKRQATLQIGSKRFGMDDLYFKFTVPFEDSEKLGTATIEAYNLSPATRNSIKKGMPIILNAGYEGDI
soluble fraction (log2): -0.425

HMKRTMVEAAMVAKLFNLTVRRIQQLTQDGVLTTELVDKKRRYDLLLTVQKYIAYLQEKVAK
soluble fraction (log2): -3.41

HMKRVVFFNGISWYHRTKELLDDMTTKYGKKGGFATPEEAEKSYWEYEERYKDRQRELQVAYLKN
soluble fraction (log2): -1.79

HMKSDEGEIKKIVEEIISKNASVVEDYKKGKEVALQFLVGQGMKATKGSANPELLKKIILENI
soluble fraction (log2): 1.01

HMKSDVVFDITDGTVKAMLKFNRSDVTILNNDGKNYYLFTANGEFTFKYQDGSGEYYEKTVYVDWLEDE
soluble fraction (log2): -2.25

HMKSFIWKQYTVQITKKNVKNTNVRIKRDNPHVILMSIPYSATYKAGLLALETPHIRHWLDNYERKLKQ
soluble fraction (log2): -1.45

HMKSIEVPNLINMTLRKAKIELIDNEFNLDTVIYEYNPNIREGRVSLQIPESGTILKSGSNISIHISKGIP
soluble fraction (log2): -1.6

HMKSIPKIKWNSTLENIKNFEYQDNFFESKEMYDLLVSFYKYGFVIIKNIPTNNNFIVKFANSIGS
soluble fraction (log2): 0.0519

HMKSISMANGNVQLRINGVLASSLEVAALSPEDIKRVEYHDNPGLRYGEGIDIVLDYITIKRT
soluble fraction (log2): -0.754

HMKSISMSKLRHLLQLYVQGRSKKLISEQTGIARNTLKKYIKEFSEAGLSLEALLALSDKELEDLFVK
soluble fraction (log2): -2.86

HMKSLPQKLLAYLESQGLTRDEAGEFVKQGLKITSNDVDQIQLLLANTEVIDIKLQEFIAQK
soluble fraction (log2): 0.0281

HMKSLVDLEISIVKKDMNYFVLPKINGEPLLMERISASEYKDFQLGKLSKEDIFQKHYPDYSEENIKNGRG
soluble fraction (log2): -0.671

HMKSSISKNWNPSKDAIEILTRAGIDQEFLENLIPEFVIYWIERSDVLISYNSKFIEHARLKWAQHTAEIQ
soluble fraction (log2): 0.192

HMKSTPMYATAIVNIRSKAGTDSEILGKLNPSEEISVISSENGWSKVSYNGKEAYISSNYLSNAKP
soluble fraction (log2): -0.0974

HMKSVFQPIYEDLLSRIQDGRLLPGMPLPSENALAVQYGTSRPTIRRAIGLLVEKSLVIRQPGIGSIVAS
soluble fraction (log2): -1.32

HMKTALQENVRAYRLERKWTQQALAEALEVSVGAVSKWESGVSRPELETLMRLAELFGVSTDALLGF
soluble fraction (log2): -2.33

HMKTAWDELNEVIEAYRGQESALIEVLHKAQEIMGYLPRDVQEAIAEGLHVPLNKVYGVVSFYHHFSV
soluble fraction (log2): 0.449

HMKTERTVRVQDQHLHYTLEEKPIKNVNLRIRPDGSVYVSAPFGTSRTLIDDFVASKSKQILAIQQAQSAM
soluble fraction (log2): -0.277

HMKTGIGIVEANGGLRLRSQASTSSDVLSTAHNGDNVVVIRQVGNWYLVNYNLKIGYMHSDYITFKE
soluble fraction (log2): -5.04

HMKTGNIIAVSLVWKGKYYMIRMFFPSAARPSRADVQTEIEKVYPGSKLSSFSVSDYEPGQPLLQV
soluble fraction (log2): -3.05

HMKTGTTGLIGEIGVVKKALTPEGKVFVHGELWRAVSKTASPEGTLVQVIKINNLVLEVEKV
soluble fraction (log2): -2.98

HMKTILEKDQRLAKYISYLIKRKRLSPEQVIEHLKTDDHGYEKYPKSINTIYAAIDKGLIPSVTRQDM
soluble fraction (log2): -0.509

HMKTKMTPELTTVIEAQIQKEWSPEQISGWLKKTHPVSVSHQRIYQHIQADRQQGGTLHQHLRQAK
soluble fraction (log2): 0.00699

HMKTKTFSPGEIVKIQTRDKSWQGTILESHDPEIILLKLTTGYNIGIRENEIINAKVIEKSKKDVKDAE
soluble fraction (log2): 0.258

HMKTKTIMSTGAREDLVKMINEYYYSKNYIITEDNRIYNTKTEKFMDDLSVKFYRGRWKVIRN
soluble fraction (log2): -0.852

HMKTLDATQRLKLNGEGIIVFNFGKYVDQPVVEIFKKERGYFAWMMSKDFSQQVKNIITKIHNEEILGK
soluble fraction (log2): -3.01

HMKTLKHYFASIAHEFGREEAELMLLSVFKTPFEQRLMLFMKDPALTEAQVQQLDNLVRQRKQGVPLPYIL
soluble fraction (log2): -2.68

HMKTLPADPTVKNFSYTVVDGEIYYRENSIMTQIELSDNAKGRVAGMVELRQIVNELIDQQLND
soluble fraction (log2): -0.849

HMKTMEQSYIGRKIILDENVEDSALIKFEGIYWTFKSVSGPLKKGTEVEIIGIEGNKILIKNK
soluble fraction (log2): -0.988

HMKTPIEFGSVYNDPVRYVIGMSIKSAESINQAIYDMMKIFGDENNMNKFDSLPDEQAVLDMVNSF
soluble fraction (log2): 0.0725

HMKTRIQDLRKELGVTQSELADAVDVTRQTIISLEGGRYKASLVLAHKLAQFFHVTIEELFIFD
soluble fraction (log2): -2.32

HMKTRNISGNHEAVWQAVRSRTQAGHPTTRAVIMDDLKAQGLNTQKFSRWLKKLVDDGSVYMDGDTIIMGK
soluble fraction (log2): -0.306

HMKTRTVVLKSAGGNKIAVIKIIKEITGLGLVEAKAVADNGGNIKENIPAEEAEAIKTQLTEAGAEVEL
soluble fraction (log2): -0.664

HMKTRYPNVYQDEKGKFFYQIFIGTDTNGRKKLKKGRRDALGHPFSSAYQASKEAKRVQALYANVS
soluble fraction (log2): -2.02

HMKTSTGSAMYLTLDLAEKYAGQAFTLVHKKADGTFEYLYATADVDGKVKFGPVYELSPFMLVKGQL
soluble fraction (log2): -1.66

HMKTSVGSKMMVMANNLSIRKSANLLSEKLADLSKGDMVEYISSTNGWNKVRYNGYVGYVSSYYLKDTGEV
soluble fraction (log2): -2.21

HMKTTKDSVFEYIQKELMTNEEYKQGINTNVIAQHFGLQRSNISTILNELVKEDRLEKTNTRPVLYFLPQ
soluble fraction (log2): -0.208

HMKTTKRERARAKLIQLLENEDRPAKEIYAGLGDIGVGSRTVEKVKKELQVTTYRSGGSWYWSLPKP
soluble fraction (log2): -0.525

HMKTVKPSQIPYSEFLKLVETDKINDVSMVGRNIIGHLDDGSKFKTYTPPNDPTLIEKLSSHNIVINAAPE
soluble fraction (log2): 0.0923

HMKTVLDSLLRILDSKELDIVVLRHIVGLTLTEIAKEKDMKKGTVFWMYNRAVKKLRLESERMGL
soluble fraction (log2): -2.13

HMKTVPNVEGEKDGTAQSAIESAGLKVGKVTYQYDDNTSKGLVISQSVKGGEKVKPNTAIDLVVSNGPK
soluble fraction (log2): -0.117
